Laboratory results from the DeepSol protein solubility set.

Experiment: soluble on expression in E. coli; label from the status in PepcDB or PDB records

Sequence	soluble on expression in E. coli
MADDGPIIEEIAEKNGRVARIMQRLQHDTQRVTSVPGFNTSATGYADLIALLDQYKNDLEAVGFNDLEQARRRAPSVDITVGSNSTNLVDYSHGRHDMPSHRRHDSSDEEITAANSHHQSPINVGNRNDTDGTNGRNGSRAGSSSSDRVRMIAGRNRISKTRRYRPGQKALEEIRKYQESEDLLIPKAPFARLVREIMQTSTPFSSDLRIRSDAINALQEASEALLVQMFDGSSLISAHSKRATLTTTDVQLYRRLCLPNL	not soluble
MPNHLAGETSPYLLQHAENPVDWYPWGEEALEIARMLDKPILLSIGYSACHWCHVMAHESFEDAQVATAMNEHFVNIKVDREERPDIDQIYQSAHYTLNHRSGGWPLTMFLTPEQKPFFGGTYFPKEARYSMPGFLELLPKVAELYRTRKTDIEKQNA	not soluble
MGSDKIHHHHHHMKIMVITKNILSETAFQNRLQHLDHQVFCTTCLIGEIKESHLFYRKFDAIILSETIPRKEQYLYLKELARVKTPLFLRSEDIPTSEELSISYQYGILNWLRLDATLDTLRENLLLAELNKPIQREDEKLDVEGIKLTAAERALLAVLYSTPKEHLPMERLCKLIYDTEETANNRKKMTKQLTKLNKKIQVGGFKKQGIQNTRYKGYKLHPQLLPYIGELFT	not soluble
AEKANQVSNIKTQLAMEYMRGQDYRQATASIEDALKSDPKNELAWLVRAEIYQYLKVNDKAQESFRQALSIKPDSAEINNNYGWFLCGRLNRPAESMAYFDKALADPTYPTPYIANLNKGICSAKQGQFGLAEAYLKRSLAAQPQFPPAFKELARTKMLAGQLGDADYYFKKYQSRVEVLQADDLLLGWKIAKALGNAQAAYEYEAQLQANFPYSEELQTVLTGQ	soluble
ENMLFTVVSLYISTKVLDFILEGYNPKKSVTIISDYYEEIATEIDANLERGITLFNGQGFYMRQDKKILYIVISRDQLLPLTKIVNKYDEKAFFIINDVQSVVGEGFTKQITSE	not soluble
MAKRYVGSCTTVLVGKKASIDGSTIIARNEDGESPLHPQKFVYVKPEDQPRHYQSVLSKFAIDLPADPLGYTATPEAEDGHGIWAAAGINSENIAMTSTETITTNSRVLGVDPLVAAGIGEEDMPTIVLPYIHSARDGVQRLGSLLEQYGTYESNGIAFADKDEVWYFESIGGHHWAAIRIPDDAYVVAPNRFNITDFDFASDDTMSSADLRDLIETYHLNPDTEGYNLRHIFGSATIKDTRYNNPRTWYGQKYFNPEFNTTPIDQDLPFICRTSKKISIEDVKFVESSHYENTPYDVYGTTGTPAQKKLYRPIGINRNQELHILQIRNNVPAAVAGIHWLAFGPNTFNAVVPFYANVNDTPAAYRETGDKFDVTKMYWLSNLLATFGDYDFSLFKDQEDVFEQKTVAACRHLQLTTDEAVKDAKDIGDHLTAANEQMATIAMANSNELLGQMVAAAAPKMKLQFTLHDLEHHHHHH	not soluble
MGSDKIHHHHHHMREIDVHPAFTDLNGSGPDPDLSPLPVVARVGSYSMGWRVEAHAHQRGQLMFVTNGSMRVETRDGSWITPPGRACWIPSAAVHSAIYTQASKMQTVLIAPELLETLPKRCCVIKLTPLLRELVSQAVAINNQYTLHSREHRLMQVLVDQISTAQQAPLFLPEGRDPRLRRVTESLHQNPGDDRSIEAWAQIAGASARTLARLFQKETGMTYSSWRQQLCLIRAVEMLTEGASVTNIALALGYESTAGFTSMFTRSMGESPSNYLTRWSQETTASE	not soluble
MGSDKIHHHHHHMKFKERLQYLRLEKELSEIQLSKKVGISESVIRLYERGKLRIDLEHLHKLAAFFDVTPGLLLGTAFPHLPPEEALESYRVVNKLLEIRNEERKDEEDSPLFIDTLAQLAAESNKSDNKASNRQATIRAGVVAVYHKIVSAHSEANQEFIEDYWPVNTTVMQIYGHDISNYFYLRVHGDFMEPTIKNQSIVLAKRQVQVDNNDLAVVLYEQSPAAVKRLNRYEDKIILLCDNKAHPAQICEQEKCIILGKVLWKPK	not soluble
MSLGKATGFMEYDRIPSPGRDPKSRTRDWNEYSLPMPVADLTLQAARCMDCGVPFCSVGMEIKNGVSGCPLHNLIPEWNDAVYRGDWYEALQLLLKTNNFPEFTGRICPAPCEGGCTVAISEPAVGIKSIEKAIIDRGFEEGWIKPQPPKKRTGKRIAVIGSGPAGLACADQLNKAGHSVTVIEKSDRIGGLLMYGIPTMKLEKEQVTRRVNLMAEEGIEFVTGVAAGTDVTFAELRAEYDSIVLATGAGNARDIPLAGRDAAGIHFAVPYLTQSTRDNLDNGGVQTLSAKDKNVVIIGGGDTGADCVATALRQGAKSIYQFGIQDKLPELRNGENPWPQYPRVFKMDYAHEEAEAVYGRDPREYLINTTSFEKDAAGNLVGLHTVEVTEDKETRQYTPVEGSEKYFEVDMVLIAIGFSGTTEDIFTNFGVGKTERHTIDAAKGFYRTSEEGVFACGDARHGQSLVVTAIAEGREAAREVDFYLMGETFLEGHHHHHH	soluble
MKSQFNQKLEDKFQRNAEQVVSLVKERMQLYENALWSSVAYIDADETDITHTKWLAYSKSLKIDLTYPGINGIGIIYNIQADQLDDYIEKQRVLRPNYAIHPSHNESEYWPITYVEPAAPNKKAIGLDMAFETNRYSSIKKARDTGVAQLTGPITLVQDAKKTPGFLFYTPFYKNGTKPESTEARRDAIDGVTYAPFIMKNLMQGTLAEKNRHVSIQIRDAGDLLFDDHDDESVLDADANPLFTKEQDISLYGRTWSFTIQSNLDFRDESAANQLEHHHHHH	not soluble
MAHHHHHHMYDSRSSGVHDVAPRDGVDFMYEGPQQVLPGAHPLPLFHPDNSVTRPPVSPYLPSPQRPHPYFTTELPELPHFQTTRPIVYTVGTMKQRIVAPVFDLANNVTHTRELDPFIFGFYPETEEMAKNLSYWLVRCQNFSSKWDYENREIWRKAKKNWPNTGMGMARVGDRKNHAHPWGAHSKPVKPWNLLMPTMDVKTWSKSNRMLVTLKMLQGKLQIVERLTLPEPTQEAYLQLCRTMGWDVRHKGGGALFMDGGSRLTPSSEYDRAFFFGSFFNGRNKLVRPTLLCDEPYDYNRTSSKARTKGPKGQKNPIPINRFNAYDALTHDTLIITEGALLQLEDEMYTHKLAMLPPHIRAQLPERGFLDSEVLGDVPPALQTVQMEAAARTEEAEQAMYAPYYDNPYHPWQDEGEASYAVDAVEGTVQRYIKSRKTSWAMLS	not soluble
MGSDKIHHHHHHIWCTPTRLARPDRRGKAIRTIGMADGTIPMNAKPTEEISVREVFGIDTPMLVKGFAERSDRVPEIDQTYKFDPDTTLAILAGFSHNRRVMVQGYHGTGKSTHIEQVAARLNWPCVRVNLDSHISRIDLIGKDAIKLRDGKQVTEFHEGILPWALRNPVAIVFDEYDAGRADVMFVIQRVLEHDGKLTLLDQNEIITPNPCFRLFATANTVGLGDTTGLYHGTQQINQAQMDRWSLVATLNYLSHDAETMIVLSKAPHYNTEKGRKQVSQMVTVADLTRTAFMNGDLSTVMSPRTVINWAQNAEIFRDVGYAFRLTFLNKCDELERQTVAEFYQRCFDEELPESAASTSLG	not soluble
RNVSFRMQPIRIPMGMIGGFIGGQIDEMISTSKDRRIDWSEVYSKDTLYGRGNSG	soluble
MGSDKIHHHHHHMKYKIHWLYKTKRGLQTDLTTDYMNIEEVLQFAEDFEKTGRVKELLFYDEMDAEWSLKEMKKLSKQVEDEPQEILVYFDGGYDVQTKEAGVGICVYYKKGNKNYRIRRNAYIEGIYDNNEAEYASLLYSMNILEELGIKYEAVTLRGDSQVVLQQLAGEWPCYDEHLNHYLDQIEQKAKQMKLKLVCEPISRKQNKEAHQLATQALEGTVIDSHKEITE	not soluble
MAHHHHHHMAERSSTLVINEAKTKNRLSDSLRSPTDRTREHLISHRNFSSVLESAADCTSASSTPDLQEEEDVQHKRALDLFSATPHSGEFSPLIEWLLRRGERGDVGAPTASQKDGDEYTQASFFNEDYIMNLCAAATAVLGKEPALLDLEVVAHDTLVVVGDIHGQFQDLYTSVLCQQYDRRRCNPEGRDCRFLFMGDYVDRGPHSLEVVLLLLALKVEYPTLVYLTRGNHEEEKTSRVYGFLTEATSSLGAAAGTAVWSAVNKVFLDLPLAAIVQTLYMRFFVTHGGLSPGLQNVEVICALERHNYSCGNITAAEDDLIAGLLWSDPTNEVAMYKRNPRGCGFLFGPSASNRFCADNNFDFICRAHQVAMEGYMWTHNDRVLTVFSAPNYCGVNRNKGAVLLIKGYSRRPIVQQYDSAEKSEAAPARKTDFAFADMFA	not soluble
MKKVALVTGAGQGIGKAIALRLVKDGFAVAIADYNDATAKAVASEINQAGGHAVAVKVDVSDRDQVFAAVEQARKTLGGFDVIVNNAGVAPSTPIESITPEIVDKVYNINVKGVIWGIQAAVEAFKKEGHGGKIINACSQAGHVGNPELAVYSSSKFAVRGLTQTAARDLAPLGITVNGYCPGIVKTPMWAEIDRQVSEAAGKPLGYGTAEFAKRITLGRLSEPEDVAACVSYLASPDSDYMTGQSLLIDGGMVFN	soluble
GSSSLIRRVISTAKAPGAIGPYSQAVLVDRTIYISGQIGMDPSSGQLVSGGVAEEAKQALKNMGEILKAAGCDFTNVVKTTVLLADINDFNTVNEIYKQYFKSNFPARAAYQVAALPKGSRIEIEAVAIQGPLTTASL	soluble
MAQGLIEVERKFAPGPDTEERLQELGATLEHRVTFRDTYYDTSELSLMLSDHWLRQREGSGWELKCPGVTGVSGPHNEYVEVTSEAAIVAQLFELLGSGEQKPAGVAAVLGSLKLQEVASFITTRSSWKLALSGAHGQEPQLTIDLDSADFGYAVGEVEAMVHEKAEVPAALEKIITVSSMLGVPAQEEAPAKLMVYLQRFRPLDYQRLLEAASSGEATGDSAS	soluble
MGSSHHHHHHGSPIHDKSPRPQEFAAVDLGSNSFHMVIARVVDGAMQIIGRLKQRVHLADGLGPDNMLSEEAMTRGLNCLSLFAERLQGFSPASVCIVGTHTLRQALNATDFLKRAEKVIPYPIEIISGNEEARLIFMGVEHTQPEKGRKLVIDIGGGSTELVIGENFEPILVESRRMGCVSFAQLYFPGGVINKENFQRARMAAAQKLETLTWQFRIQGWNVAMGASGTIKAAHEVLMEMGEKDGIITPERLEKLVKEVLRHRNFASLSLPGLSEERKTVFVPGLAILCGVFDALAIRELRLSDGALREGVLYEMEGRFRHQDVRSRTASSLANQYHIDSEQARRVLDTTMQMYEQWREQQPKLAHPQLEALLRWAAMLHEVGLNINHSGLHRHSAYILQNSDLPGFNQEQQLMMATLVRYHRKAIKLDDLPRFTLFKKKQFLPLIQLLRLGVLLNNQRQATTTPPTLTLITDDSHWTLRFPHDWFSQNALVLLDLEKEQEYWEGVAGWRLKIEEESTPEIAA	soluble
MHPRKIEIVTAAVTCFLERGYHQTGIRDIARQAGVSLGNLYNHFAGKEAVLAFIAELEGRELAAFVDMLSDPEEPYAALERFIWAYAAYAARPENALLGLELMAEALRNPTISQVFDGNRHQLVAALMGCLERGVSTGRFRHLDDTRALALMILDTLEGQGLRQLDRKTPDPDAVRTLCAVLTTGLLARDQSPPPVPCNTPCSSA	not soluble
MVDSRAFKLKEGREREVDMTSETEKRIIALEETIAHQAKTIEELSDQLAEQWKVVEQTRAKLDRLTERFLSLEEQSLDAPAITRPPHY	not soluble
MSLPKITKIEVQKKNKERFNLFLDEQFEMGIDIDTLVKFNLKKGQQLEAADMAEIQKYDHYRIGLNKAIQYLSYKKRTEKEVIQYLQKEEISEQAISEVIEYCYREKLIDHQDYAESLKNTMIRTTDKGPKIYQQKLYQLGIEPNIIEIFTELYREQQELDDIIQIAEKISKTKKGPQNKVKEKVMQSLIQKGFEMETIHAVLNEMDFTQDEAVLDDLLQRDLEKIYNKNRKKYTQQKLISKTIEGLMRKGYKYDKIKAKLEESGIADGTEEIEEGHHHHHH	soluble
